Laboratory results reported in the RNAGym collection of RNA variant scans (doi:10.1073/pnas.2313332121).

B1: TPR t1 (parent)
chain: GACCAAUCUGCCCUCAGAGCUCGAGAACAUCUUCGGAUGCAGAGGAGGCAGGCUUCGGUGGCGCGAUAGCGCCAACGUCCUCAACCUCCAAUGCAUCCCACCACAUGAUGAUGCCUGAAGAGCCUUGGUUUUUUG

Variants of: B1
Assay: polymerase ribozyme fitness, log enrichment relative to wild type (log ratio); higher = more active; in vitro selection for triplet polymerase activity
In short: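 Each subunit of a heterodimeric triplet polymerase ribozyme was represented by a PCR-built, transcribed mutant library that underwent triplicate single-round in vitro selection with frozen incubation at −7 °C. Extended constructs were recovered by gel excision, streptavidin-bead capture and RT-PCR, and Illumina sequencing of input and output libraries kept genotypes with ≥10 input reads and ≥1 read per output. Fitness is the logarithm of genotype enrichment relative to wild-type enrichment, from inverse-variance-weighted replicate averages, with a logarithm base of 2.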

Point of comparison: G60U A84G C86U G135C, “polymerase ribozyme fitness (log ratio)” value -0.459. Against it:
- C13G A29U C34A G61U A111U U133C — lower, -1.41
- C3U G120U — within 0.2 log units, -0.507
- C28G C98U — lower, -4.78
- U132C — higher, -0.134
- A43U G44C — lower, -1.05
- C56U C123G — higher, 1.1
- C40U G61C U126G — lower, -4.04
- C73U C123U — higher, 0.98
- G52U G117C — lower, -5.35
- A41U C62A — lower, -2.71
- U96A C97A — lower, -2.95
- C13A C101U G113A — lower, -2.95
- C76U U129G — lower, -0.833
- A46C U81A G93U — lower, -2.96
- G52A C70U C102U — lower, -2.87
- C12U C15U C72A A121U — higher, 1.3
- C3G G47U G93A — lower, -4.99
- C62U A66G — lower, -1.54
- C15A A27C U55G A111U — lower, -6.51
- G42C C79U A95G U129C — lower, -2.57
- C70A C124G U125A — higher, 0.0006
- C70U U112A U116A — lower, -1.48
- C12A A50U A74C A84G U112A — lower, -4.85
- C88U U116C — higher, 0.189
- G35C C53U C94U A121C — lower, -3.49
- U106A C114G U133C — lower, -2.16
- C20G C123U U126A — lower, -3.94
- C115G G135U — lower, -2.97
- C28U C101A C123G G128U — lower, -3.71
- G52A G69C — lower, -1.72
- U55A C85A C115G — lower, -3.37
- U7A U106G G128C — lower, -4.39
- G52A C56A — higher, -0.146
- G117A U129C — lower, -2.05
- C12U C53U — higher, 0.906
- U33G A37U C49A C115U U131G — lower, -6.12
- C62A U112C — higher, 0.245
- A83G G113U — lower, -3.23
- A16U C20A C62U A83C G120A — lower, -6.31
- C73G C101A — lower, -1.3
- C13A C123A — lower, -0.742
- U54C C82U A83C C115G G117A U129C — lower, -4.19
- G10C G71U — lower, -1.91
- A50U G63C C86G U87A — lower, -3.52
- C4U C102U C124U — within 0.2 log units, -0.637
- A29G A43G — lower, -2.43
- A24G C86U — lower, -2.07
- A5G A16U G61U A66C U129A — lower, -3.64
- G63U U112A — higher, -0.0798
- G17A G113A — lower, -3.43
- G63A A83C C102U G113U — lower, -7.43
- G23U U33G C49G C53G U59G G71A U78A A84U C94G A100U — lower, -8.02
- C40A G60A — lower, -1.03
- A43U G47U A74U — lower, -2.98
- C11U G45C C88A — within 0.2 log units, -0.484
- C72U C76G — within 0.2 log units, -0.525
- C15U U96C U129A — lower, -2.88
- A5G C114A — lower, -1.2
- G10C A24U C53A G63C G117C G128A — lower, -5.7
- A18C C73U — lower, -2.53
- G17U G57A C101A G107U G120C G127A U132C — lower, -5.32
- G42U G77C C80U A84U C97U — lower, -3.47
- C34A A50U A83G — lower, -4.58
- C8G A46C C97G C101A C114A U130C — lower, -6.93
- A41G C56G G69C U133G — lower, -5.1
- C3U C85A G117A — lower, -2.52
- G19C G61A G113U U129A — lower, -4.11
- C64A A84C — lower, -5.15
- G42A G44A A50C C115A — lower, -4.02
- G45U C123G — within 0.2 log units, -0.391
- A18C C101A — lower, -3.03
- A5G G69C — lower, -1.4
- C62A G77U U78A A119U G128C — lower, -5.16
- A5C G117U — lower, -3.58
- C8G C79U U96A U130C U133G — higher, -0.147
- C49U C114A — lower, -2.34
- U9C A119U C123U — higher, 2.07
- C15U U21A G63U — lower, -2.12
- A27U C79A — lower, -3.85
- C79U C101G — lower, -1.8
- G44A G113C — lower, -3.16
- C11U G51A C56G C124A — lower, -0.733
- C11G A37C G61A — higher, -0.00618
- A6C G69U C72U — higher, -0.0767
- C20G G58A C89G G117U — lower, -4.04
- U9C U14G C80G — lower, -6.05
- C12G G61A — higher, 0.388
- C8A C72U A84C — higher, 0.272
- G39U C40G C64U U106A U109A G120C — lower, -5.69
- C82G C97U — lower, -1.16
- A6U C8G — higher, 0.868
- C49G C97G — lower, -4.99
- C40A C49G U55C A95C G120A — lower, -2.38
- C98U U112G — lower, -3.32
- C12A G45U — lower, -1.63
- G23A G63C C101U A111G — lower, -6.12
- A46U G77A G127C — lower, -2.57
- C3G C53G C86G C94U U106G G120A — lower, -5.63
- C94A U112G — lower, -1.48
- C13A U21G G63A — lower, -4.73
- C13A C20U C40U C72A A83C G117U C124A — lower, -4.4
- C70G G113C — lower, -4
- G51U C56A C98U C99U C124A U131G — lower, -6.41
- G42U U54A A91U A121C C124A — higher, 0.144
- U21G U38C G71C C99G C114U G120U A121U — lower, -7.22
- A74C C94U — within 0.2 log units, -0.6
- A26G A111U — lower, -2.41
- A43G G58C C62A C85U — lower, -6.11
- C8A C49A — higher, 0.247
- U55A C104A G113C G122U — lower, -3.73
- U55G C76A — higher, -0.0105
- A6U A37G G127C G135U — lower, -1.84
- G113U G135U — lower, -3.24
- G110U C115A U129C — lower, -3.17
- G60U C98G — lower, -5.35
- G42U C115G — lower, -1.8
- G63C G113C — lower, -3.38
- C28G U59A — lower, -3.18
- G36C G44U A90C C102U — lower, -5.65
- A37C A43G — lower, -2.56
- G71U A84G G120A U130G — lower, -1.33
- C12G C15G C123U — lower, -1.81
- C28G G36U C72U C73U — lower, -4.2
- C8U G63C C123A U132A — higher, 1.06
- C11U A26U — lower, -3.21
- C49U C56A U109A G117U — lower, -5.98
- G35C C76U G77U C123U — lower, -6.87
- C11G A37G G69C C115G — lower, -3.53
- C13G G17U U38A C49G G61U — lower, -4.63
- G51A G71C U112C — lower, -2.08
- G10U C97U — lower, -0.693
- U33A A119G G120A — lower, -3.37
- C22A G60U — lower, -4.21
- C12U C49U G63U — lower, -1.49
- C20A G77A G135U — lower, -3.74
- C3A C89A — lower, -2.07
- G35U C62U — lower, -3.74
- G61A U131C — lower, -0.691
- C62A U78C — lower, -1.1
- A26C G69U G120U — lower, -2.51
- A5C G120A — higher, 0.639
- A41G G63A — lower, -1.32
- G47U C53A — lower, -1.95
- G42U A43C — lower, -1.95
- G44U C49A C56U G117A — lower, -2.64
- G19A U112G — lower, -3.87
- A2G A50U G57C G60C C85G G113A — lower, -2.81
- A16U G36A G44U A83C — lower, -5.08
- G39C A43G G48U U54G G93C G113A — lower, -5.27
- A27G U87C — lower, -1.74
- U7A A29G G63U C98U — lower, -3.67
- C53A C79U C86U — within 0.2 log units, -0.479
- A5U U9A U32C A37U C49U G69U G93A — lower, -1.24
- C22A C123A U125G — lower, -4.58
- A84C C88G — lower, -0.958
- C13A C86U C124G — higher, 1.07
- C40A G45U G63A G69C C82A C86G C101U C114G — lower, -6.64
- C31U U78A A90G — lower, -3.97
- C12A A46C U59A — within 0.2 log units, -0.649
- G69C U131A — lower, -2.41
- C80G C124G — lower, -4.49
- A27U G36C G44C G122A U126G — lower, -5.95
- C40A G44C C53A U55G G128A — lower, -3.45
- C28G G47C — lower, -3.69
- C40A A43U G63U C89U C102U U106C C123A — lower, -7.19
- C99U G110A — lower, -5.27
